Data published in US20250339531A1, “DUX4 POLYPEPTIDES AND NUCLEIC ACIDS FOR TREATING INFLAMMATORY AND AUTOIMMUNE CONDITIONS” (Fred Hutchinson Cancer Center, priority 2021, published 2025).

B1: O75083 (protein, UniProt O75083 1-606, looked up)
chain: MPYEIKKVFASLPQVERGVSKIIGGDPKGNNFLYTNGKCVILRNIDNPALADIYTEHAHQVVVAKYAPSGFYIASGDVSGKLRIWDTTQKEHLLKYEYQPFAGKIKDIAWTEDSKRIAVVGEGREKFGAVFLWDSGSSVGEITGHNKVINSVDIKQSRPYRLATGSDDNCAAFFEGPPFKFKFTIGDHSRFVNCVRFSPDGNRFATASADGQIYIYDGKTGEKVCALGGSKAHDGGIYAISWSPDSTHLLSASGDKTSKIWDVSVNSVVSTFPMGSTVLDQQLGCLWQKDHLLSVSLSGYINYLDRNNPSKPLHVIKGHSKSIQCLTVHKNGGKSYIYSGSHDGHINYWDSETGENDSFAGKGHTNQVSRMTVDESGQLISCSMDDTVRYTSLMLRDYSGQGVVKLDVQPKCVAVGPGGYAVVVCIGQIVLLKDQRKCFSIDNPGYEPEVVAVHPGGDTVAIGGVDGNVRLYSILGTTLKDEGKLLEAKGPVTDVAYSHDGAFLAVCDASKVVTVFSVADGYSENNVFYGHHAKIVCLAWSPDNEHFASGGMDMMVYVWTLSDPETRVKIQDAHRLHHVSSLAWLDEHTLVTTSHDASVKEWTITY
modifications: full-length
B2: P02545 (protein, UniProt P02545 1-664, looked up)
chain: METPSQRRATRSGAQASSTPLSPTRITRLQEKEDLQELNDRLAVYIDRVRSLETENAGLRLRITESEEVVSREVSGIKAAYEAELGDARKTLDSVAKERARLQLELSKVREEFKELKARNTKKEGDLIAAQARLKDLEALLNSKEAALSTALSEKRTLEGELHDLRGQVAKLEAALGEAKKQLQDEMLRRVDAENRLQTMKEELDFQKNIYSEELRETKRRHETRLVEIDNGKQREFESRLADALQELRAQHEDQVEQYKKELEKTYSAKLDNARQSAERNSNLVGAAHEELQQSRIRIDSLSAQLSQLQKQLAAKEAKLRDLEDSLARERDTSRRLLAEKEREMAEMRARMQQQLDEYQELLDIKLALDMEIHAYRKLLEGEEERLRLSPSPTSQRSRGRASSHSSQTQGGGSVTKKRKLESTESRSSFSQHARTSGRVAVEEVDEEGKFVRLRNKSNEDQSMGNWQIKRQNGDDPLLTYRFPPKFTLKAGQVVTIWAAGAGATHSPPTDLVWKAQNTWGCGNSLRTALINSTGEEVAMRKLVRSVTVVEDDEDEDGDDLLHHHHGSHCSSSGDPAEYNLRSRTVLCGTCGQPADKASASGSGAQVGGPISSGSSASSVTVTRSYRSVGGSGGGSFGDNLVTRSYLLGNSSPRTQSPQNCSIM
modifications: full-length
B3: Q6NZI2 (protein, UniProt Q6NZI2 1-390, looked up)
chain: MEDPTLYIVERPLPGYPDAEAPEPSSAGAQAAEEPSGAGSEELIKSDQVNGVLVLSLLDKIIGAVDQIQLTQAQLEERQAEMEGAVQSIQGELSKLGKAHATTSNTVSKLLEKVRKVSVNVKTVRGSLERQAGQIKKLEVNEAELLRRRNFKVMIYQDEVKLPAKLSISKSLKESEALPEKEGEELGEGERPEEDAAALELSSDEAVEVEEVIEESRAERIKRSGLRRVDDFKKAFSKEKMEKTKVRTRENLEKTRLKTKENLEKTRHTLEKRMNKLGTRLVPAERREKLKTSRDKLRKSFTPDHVVYARSKTAVYKVPPFTFHVKKIREGQVEVLKATEMVEVGADDDEGGAERGEAGDLRRGSSPDVHALLEITEESDAVLVDKSDSD
modifications: full-length
B4: Q07065 (protein, UniProt Q07065 1-602, looked up)
chain: MPSAKQRGSKGGHGAASPSEKGAHPSGGADDVAKKPPPAPQQPPPPPAPHPQQHPQQHPQNQAHGKGGHRGGGGGGGKSSSSSSASAAAAAAAASSSASCSRRLGRALNFLFYLALVAAAAFSGWCVHHVLEEVQQVRRSHQDFSRQREELGQGLQGVEQKVQSLQATFGTFESILRSSQHKQDLTEKAVKQGESEVSRISEVLQKLQNEILKDLSDGIHVVKDARERDFTSLENTVEERLTELTKSINDNIAIFTEVQKRSQKEINDMKAKVASLEESEGNKQDLKALKEAVKEIQTSAKSREWDMEALRSTLQTMESDIYTEVRELVSLKQEQQAFKEAADTERLALQALTEKLLRSEESVSRLPEEIRRLEEELRQLKSDSHGPKEDGGFRHSEAFEALQQKSQGLDSRLQHVEDGVLSMQVASARQTESLESLLSKSQEHEQRLAALQGRLEGLGSSEADQDGLASTVRSLGETQLVLYGDVEELKRSVGELPSTVESLQKVQEQVHTLLSQDQAQAARLPPQDFLDRLSSLDNLKASVSQVEADLKMLRTAVDSLVAYSVKIETNENNLESAKGLLDDLRNDLDRLFVKVEKIHEKV
modifications: full-length
B5: Q16643 (protein, UniProt Q16643 1-649, looked up)
chain: MAGVSFSGHRLELLAAYEEVIREESAADWALYTYEDGSDDLKLAASGEGGLQELSGHFENQKVMYGFCSVKDSQAALPKYVLINWVGEDVPDARKCACASHVAKVAEFFQGVDVIVNASSVEDIDAGAIGQRLSNGLARLSSPVLHRLRLREDENAEPVGTTYQKTDAAVEMKRINREQFWEQAKKEEELRKEEERKKALDERLRFEQERMEQERQEQEERERRYREREQQIEEHRRKQQTLEAEEAKRRLKEQSIFGDHRDEEEETHMKKSESEVEEAAAIIAQRPDNPREFFKQQERVASASAGSCDVPSPFNHRPGSHLDSHRRMAPTPIPTRSPSDSSTASTPVAEQIERALDEVTSSQPPPLPPPPPPAQETQEPSPILDSEETRAAAPQAWAGPMEEPPQAQAPPRGPGSPAEDLMFMESAEQAVLAAPVEPATADATEIHDAADTIETDTATADTTVANNVPPAATSLIDLWPGNGEGASTLQGEPRAPTPPSGTEVTLAEVPLLDEVAPEPLLPAGEGCATLLNFDELPEPPATFCDPEEVEGESLAAPQTPTLPSALEELEQEQEPEPHLLTNGETTQKEGTQASEGYFSQSQEEEFAQSEELCAKAPPPVFYNKPPEIDITCWDADPVPEEEEGFEGGD
modifications: full-length
B6: P12814 (protein, UniProt P12814 1-892, looked up)
chain: MDHYDSQQTNDYMQPEEDWDRDLLLDPAWEKQQRKTFTAWCNSHLRKAGTQIENIEEDFRDGLKLMLLLEVISGERLAKPERGKMRVHKISNVNKALDFIASKGVKLVSIGAEEIVDGNVKMTLGMIWTIILRFAIQDISVEETSAKEGLLLWCQRKTAPYKNVNIQNFHISWKDGLGFCALIHRHRPELIDYGKLRKDDPLTNLNTAFDVAEKYLDIPKMLDAEDIVGTARPDEKAIMTYVSSFYHAFSGAQKAETAANRICKVLAVNQENEQLMEDYEKLASDLLEWIRRTIPWLENRVPENTMHAMQQKLEDFRDYRRLHKPPKVQEKCQLEINFNTLQTKLRLSNRPAFMPSEGRMVSDINNAWGCLEQVEKGYEEWLLNEIRRLERLDHLAEKFRQKASIHEAWTDGKEAMLRQKDYETATLSEIKALLKKHEAFESDLAAHQDRVEQIAAIAQELNELDYYDSPSVNARCQKICDQWDNLGALTQKRREALERTEKLLETIDQLYLEYAKRAAPFNNWMEGAMEDLQDTFIVHTIEEIQGLTTAHEQFKATLPDADKERLAILGIHNEVSKIVQTYHVNMAGTNPYTTITPQEINGKWDHVRQLVPRRDQALTEEHARQQHNERLRKQFGAQANVIGPWIQTKMEEIGRISIEMHGTLEDQLSHLRQYEKSIVNYKPKIDQLEGDHQLIQEALIFDNKHTNYTMEHIRVGWEQLLTTIARTINEVENQILTRDAKGISQEQMNEFRASFNHFDRDHSGTLGPEEFKACLISLGYDIGNDPQGEAEFARIMSIVDPNRLGVVTFQAFIDFMSRETADTDTADQVMASFKILAGDKNYITMDELRRELPPDQAEYCIARMAPYTGPDSVPGALDYMSFSTALYGESDL
modifications: full-length
B7: P51784 (protein, UniProt P51784 1-963, looked up)
chain: MAVAPRLFGGLCFRFRDQNPEVAVEGRLPISHSCVGCRRERTAMATVAANPAAAAAAVAAAAAVTEDREPQHEELPGLDSQWRQIENGESGRERPLRAGESWFLVEKHWYKQWEAYVQGGDQDSSTFPGCINNATLFQDEINWRLKEGLVEGEDYVLLPAAAWHYLVSWYGLEHGQPPIERKVIELPNIQKVEVYPVELLLVRHNDLGKSHTVQFSHTDSIGLVLRTARERFLVEPQEDTRLWAKNSEGSLDRLYDTHITVLDAALETGQLIIMETRKKDGTWPSAQLHVMNNNMSEEDEDFKGQPGICGLTNLGNTCFMNSALQCLSNVPQLTEYFLNNCYLEELNFRNPLGMKGEIAEAYADLVKQAWSGHHRSIVPHVFKNKVGHFASQFLGYQQHDSQELLSFLLDGLHEDLNRVKKKEYVELCDAAGRPDQEVAQEAWQNHKRRNDSVIVDTFHGLFKSTLVCPDCGNVSVTFDPFCYLSVPLPISHKRVLEVFFIPMDPRRKPEQHRLVVPKKGKISDLCVALSKHTGISPERMMVADVFSHRFYKLYQLEEPLSSILDRDDIFVYEVSGRIEAIEGSREDIVVPVYLRERTPARDYNNSYYGLMLFGHPLLVSVPRDRFTWEGLYNVLMYRLSRYVTKPNSDDEDDGDEKEDDEEDKDDVPGPSTGGSLRDPEPEQAGPSSGVTNRCPFLLDNCLGTSQWPPRRRRKQLFTLQTVNSNGTSDRTTSPEEVHAQPYIAIDWEPEMKKRYYDEVEAEGYVKHDCVGYVMKKAPVRLQECIELFTTVETLEKENPWYCPSCKQHQLATKKLDLWMLPEILIIHLKRFSYTKFSREKLDTLVEFPIRDLDFSEFVIQPQNESNPELYKYDLIAVSNHYGGMRDGHYTTFACNKDSGQWHYFDDNSVSPVNENQIESKAAYVLFYQRQDVARRLLSPAGSSGAPASPACSSPPSSEFMDVN
modifications: full-length

tested on: proteins that co-immunoprecipitated with DUX4-CTD constructs expressed in MB135 myoblasts; assay: LC-MS of proteins co-immunoprecipitated with DUX4-CTD (Table 1) and western validation; type: binding, human; design: key to 4. mL1dL2 + Dox + IFNG / 4. + IFNG mix / 4. longCTD + Dox + IFNG / 3. + IFNg + Dox longCTD / 3. + Dox longCTD / 3. + IFNG longCTD: peptide-spectrum matches (PSMs) per protein; conditions: LC-MS counts of the listed protein co-immunoprecipitated with DUX4-CTD bait longCTD; experiment 4, Dox + IFNG
Outline: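 FLAG-tagged DUX4-CTD expressed in doxycycline-induced MB135 myoblasts, some also IFNG-treated; nuclear lysates in pH 7.4 NP-40 IP buffer were pre-cleared, then anti-FLAG immunoprecipitated 3 h at 4 °C. For LC-MS, FLAG-peptide elution, in-gel trypsin digest, Orbitrap analysis; proteins with ≥2 PSMs in both experiments categorised and ranked by total PSMs.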

Molecule	4. longCTD + Dox + IFNG
B1	11
B2	6
B3	16
B4	13
B5	33
B6	34
B7	2

same assay, conditions: bait longCTD; experiment 3, Dox only

Molecule	3. + Dox longCTD
B1	1
B4	30
B5	3
B6	4

same assay, conditions: bait longCTD; experiment 3, IFNG only, no doxycycline (bait at background level)

Molecule	3. + IFNG longCTD
B4	4

same assay, conditions: bait longCTD; experiment 3, IFNg + Dox

Molecule	3. + IFNg + Dox longCTD
B1	2
B2	3
B3	3
B4	62
B5	13
B6	13
B7	1

same assay, conditions: sum over all samples

Molecule	SUM of PSMS
B1	16
B2	21
B3	42
B4	152
B5	51
B6	82
B7	4
